Tests used:
[1] = system: SMGBP1 (SMG Binding Protein 1)
[2] = system: protein having a molecular weight of 70 kDa (p70)

Chain of SMGBP1 (SMG Binding Protein 1) (chain, as listed by the source): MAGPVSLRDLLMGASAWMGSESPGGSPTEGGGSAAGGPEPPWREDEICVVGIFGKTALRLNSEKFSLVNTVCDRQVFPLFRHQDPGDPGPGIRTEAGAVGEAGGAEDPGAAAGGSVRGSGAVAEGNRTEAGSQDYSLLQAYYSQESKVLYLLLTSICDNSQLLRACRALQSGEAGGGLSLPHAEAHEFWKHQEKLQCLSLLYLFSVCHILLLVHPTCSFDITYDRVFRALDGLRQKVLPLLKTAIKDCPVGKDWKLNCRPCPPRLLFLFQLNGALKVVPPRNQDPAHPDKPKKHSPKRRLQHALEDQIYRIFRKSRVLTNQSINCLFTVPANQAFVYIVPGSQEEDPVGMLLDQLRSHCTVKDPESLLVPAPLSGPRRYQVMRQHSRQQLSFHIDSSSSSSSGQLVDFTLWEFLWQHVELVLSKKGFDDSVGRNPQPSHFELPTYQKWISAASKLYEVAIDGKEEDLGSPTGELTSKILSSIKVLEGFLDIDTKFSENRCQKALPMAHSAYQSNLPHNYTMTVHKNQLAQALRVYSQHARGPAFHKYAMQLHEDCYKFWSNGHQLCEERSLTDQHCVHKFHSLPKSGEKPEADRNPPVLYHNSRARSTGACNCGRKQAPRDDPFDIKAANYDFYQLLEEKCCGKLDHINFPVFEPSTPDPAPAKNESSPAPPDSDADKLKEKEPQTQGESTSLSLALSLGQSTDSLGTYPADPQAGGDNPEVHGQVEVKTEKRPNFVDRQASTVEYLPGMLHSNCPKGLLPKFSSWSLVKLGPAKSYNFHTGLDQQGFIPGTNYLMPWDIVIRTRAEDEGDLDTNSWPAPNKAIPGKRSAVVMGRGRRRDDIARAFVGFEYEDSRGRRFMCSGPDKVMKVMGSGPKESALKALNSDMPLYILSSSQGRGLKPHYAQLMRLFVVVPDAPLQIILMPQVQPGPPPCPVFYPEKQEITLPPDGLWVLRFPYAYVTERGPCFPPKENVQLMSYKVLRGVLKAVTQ

Substance: human SMG-1 (hSMG-1)
- phosphorylation in the hSMG-1 immunoprecipitate (32P autoradiography) [1]: a protein having a molecular weight of 130 kDa (p130) and a protein having a molecular weight of 70 kDa (p70), were detected as phosphorylated proteins. The patterns of phosphorylation thereof accorded exactly with those of autophosphorylation of hSMG-1.
- phosphorylation in the hSMG-1 immunoprecipitate (32P autoradiography) [2]: a protein having a molecular weight of 130 kDa (p130) and a protein having a molecular weight of 70 kDa (p70), were detected as phosphorylated proteins. The patterns of phosphorylation thereof accorded exactly with those of autophosphorylation of hSMG-1.

Reference: US20050196797
